Patent US20220002389A1 (IMMUNO BIOLOGICAL LABORATORIES, published 2022)

Biological target: HIV-1 BaL strain envelope protein (gp120) on BaL-infected CEM.NKR-CCR5 (NKR24) cells (HIV-1 BaL strain)
Assay: cell-based or functional assay

Binder | IC50 (50% inhibitory concentration) of infection of TZM-bl cells by BaL virus, luciferase RLU; 'Dose at Y = 50'
Bcell-1C10 (1C10 antibody of B cell origin) (antibody, human IgG1, kappa, V domains shown) VH: EVQLVESGGGVVQPGRSLRVSCVASGFMFSNYAMHWVRQTAGKGLEWVAIISNDGSDKYYADSVQGRFTVSRDNSQNTLFLQMSGLRPEDSGLYYCARDLDQTIPDLTAPAFEVWGQGTMVTVSS VL: DIVMTQSPLSLAVTPGEPASISCRSSQSLLHSDGNNYLDWYLQKPGQSPQLLIYLTSNRASGVPDRFSGSGSGTDFTLKISRVEAEDVGVYFCMQSLQTWTFGQGTKVEIKR | 0.097 µg/mL
CHO-1C10 (1C10 antibody produced in ExpiCHO-S cells) (antibody, human IgG1, kappa, V domains shown, about 70.3% core fucose-added N-glycan) VH: EVQLVESGGGVVQPGRSLRVSCVASGFMFSNYAMHWVRQTAGKGLEWVAIISNDGSDKYYADSVQGRFTVSRDNSQNTLFLQMSGLRPEDSGLYYCARDLDQTIPDLTAPAFEVWGQGTMVTVSS VL: DIVMTQSPLSLAVTPGEPASISCRSSQSLLHSDGNNYLDWYLQKPGQSPQLLIYLTSNRASGVPDRFSGSGSGTDFTLKISRVEAEDVGVYFCMQSLQTWTFGQGTKVEIKR | 0.0781 µg/mL
